# Experimental data published in the DeepSol protein solubility set.
# Test: soluble on expression in E. coli; label from the status in PepcDB or PDB records
row,Sequence,soluble on expression in E. coli
1,MKLGVIAAMDLELQKLLEYFPPQRKIQLAKNTFYIYEQKTSQVIMVCAGQGKTNATLYSQILIDSFQIEQLINIGICGCLNEKLQLFEMVLGEEYCHYDIRERQSINKFPYQLYYKGDKGMLAELQHLDEKIKCVRFGTGEGFVCDTTEKRNLIEQFSIDCVDMESAAIAQCCFLNDCAFVSIRIICDRADANAVKVTEDTQTQAMEKVFELVCAYIN,not soluble
2,MKLILNTPGLYLCKRGECFQIQSENEKREIAATKVDQIMITTHAALTTDAIELALEYNIDIIFLKNTGQPMGRVWHSKLGSISTIRRKQLFLQDSPLGLQLVKEWILEKMDNQIRLLKKLEVNRRDDEKRAIIRDTIEKIEKQKANIMSINNKETVNNVRNMLLGYEGTAGRVYFETLGKLIPEKYAFEARSRNPAKDPFNCMLNYSYGILYSSVEKACIIAGLDPYIGIMHTDNYNKKALVYDMVEMYRGYMDEIVFRLFSTKKVQDDFFDKIEDGYYLNKEGKQLLISEYNKELEVKMNYRGRRIEFANIIQYDCHQIANRILKEDIPC,soluble
3,MKLIWSPETASKAYIDTVKSCENLGTPGAAELVAAMAAGWNANLIVETWSEGETIAISVGLNIASRHTNGRHICIVPNARSQTAYLQAMAEQSCSNLPETIIMNEEGEELEHTMQTLQGIDFLVVDWDQKDFAANVLRNAVFGSRGAVVVCRSGYRRSTSCFSWTKAFSDRNVVRTVTLPVSGGLEIAHVAAARSSGKSDNNSNKRKWIKHFDQRSGEEHVIRK,soluble
4,MKLKKTDVFNLDGTVKQTAFIHDQKTGKKNTLYLKPVQQDLMLYHAWLIQQNMNSEWLFPSTSRPDRPITEKQFYKIMARVGDLLGINYLGTHTMRKTGAYRVYTQSNYNIGLVMHLLNHSSEAMTLTYLGLDQASRENMLDQIDFG,not soluble
5,MKLKVTVNGAGKAGEGEIPAPLAGTVSKILVKEGDTVKAGQTVLVLEAMKMETEINAPTDGKVEKVLVKERDAVQGGQGLIKIG,soluble
6,MKLKYSGLTASGNTHPKFTRGDIYRDQYGGMVTIKGVAERRITYRREGYEYDCVMPVYQFRRDFTLVQAAPRSKPTSREKARANIQEIKKMLNVFRGKK,not soluble
7,MKLLKTKNCLYYRNGDNKLSEYQLLTQFNPAFINKKIKMCEFQIESMYHMSASTTTCDEIMGVVSVSYPIEKLVIKIIETKAGLQNYKNRSINNMALLKKVLNHYTEKEQKQVVKYMRSNGRYKPYNVIERLQVDLYQASIKQRSERQKQRNTAIENSKIARVNAYHQSSYVKVV,not soluble
8,MKLPKEGDFITIQSYKHDGRLHRTWRDTMVLKTTENAVIGVNDHTLVTEADGRRWVTREPAIVYFHKKYWFNIIAMIRDNGISYYCNLASPYVLDQEALKYIDYDLDVKVFADGEKKLLDVDEYEIHKKEMHYSPDIDYILKEHVKILVDWINNGKGPFSQSYVNIWYKRYLELRNR,not soluble
9,MKLSTAFLTFSAVFLYGSAQQLLYLNSFKGMRVNNDMYEWCNIYISAQSDDTSFLASVYIVTAKNSKSLLNIMQDNLQNTGEIQGYPVDPPAYLTTSLSDNEMKQLNGVIYLSSAGQRVDSTFHVYDIYQARKMNIIANGYSTFLFLNSNMQTKPSRSSIISDWNQIKGSSGLLYAGFPLDSKVNVYPIFSNPITIQNSEVLFPNVETFSLSLAAFYITTNNGFSFKIKPGYYNINGTNTTSVYSTTGFYMKPAGEDDSTIVVNIENDIRCSGTSGASVVGHFPTGGNVTVGFYNGMAKYEQSAPPEDYPSYNPWTIPFIGQHFKVSSTNGTAGQYYVQYFVNQRPPRQTTPPETTTKSAGAVKLFTSVVTLLMYWL,not soluble
10,MKLTKGKVLLAGCMAMAMSHSVLAQDIKVAIVGAMSGPVAQYGDMQFTGARQAIADINASGGIKGDKLVGVEYDDACDPKQAVAVANKVINDGIRYVIGHLCSSSTQPASDIYEDEGVIMITPAATNADLTTRGYKMIMRTTGLDSDQGPTAAKYIVETIKPKRIAVVHDKQQYGEGLARSVRDSLKEQGAEVVLFEGVTAGDKDFSTLVARLKKENVDFVYFGGYYPEMGQILRQAKQAGLTARFMGPEGVGNSSLSNIAGEASEGMLVTLPKRYDQVPANQPIVDALKAKKLDPTGPFVWTTYAALQSLTTAMERTGSKEPADLANDLKTGKPVETVMGPLSWDDKGDLKGFEFGIFEWHADGSSTAVK,not soluble
